{
  "source": "paper PMC6182141",
  "about": "“Lytic gene expression in the temperate bacteriophage GIL01 is activated by a phage-encoded LexA homologue”",
  "key": {"[1]": {"biological_target": "T1, gp7 (Bacillus thuringiensis phage GIL01) (UniProt Q7WSG2)", "T1 sequence": "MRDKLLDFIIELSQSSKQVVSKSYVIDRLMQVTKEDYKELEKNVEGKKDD", "test": "EMSA", "settings": "SPR: 25 mM Tris-HCl pH 7.4, 140 mM NaCl, 5 mM EDTA, 2 mM DTT, 0.1 mg/ml BSA, 0.005% P20, 25 C; EMSA and footprinting buffers as in cited work"}, "gp6 K38A": {"biological_target": "T2, gp6 K38A (Bacillus thuringiensis phage GIL01, UniProt Q5ILC6 1-66, K38A)", "T2 sequence": "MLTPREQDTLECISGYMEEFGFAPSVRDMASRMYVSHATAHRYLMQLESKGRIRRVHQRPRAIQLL", "test": "SPR; 2.34-150 nM; SPR: 25 mM Tris-HCl pH 7.4, 140 mM NaCl, 5 mM EDTA, 2 mM DTT, 0.1 mg/ml BSA, 0.005% P20, 25 C; EMSA and footprinting buffers as in cited work", "settings": "protein: recombinant; tags: N-terminal His6 + thrombin site; chain copies: 2; label: 3'-biotin-TEG on S1 capture oligo; 36 bp duplex, 5' overhang 15 nt annealed to immobilized S1 (S39)"}, "gp6 [2]": {"biological_target": "T3, gp6 (Bacillus thuringiensis phage GIL01, UniProt Q5ILC6)", "T3 sequence": "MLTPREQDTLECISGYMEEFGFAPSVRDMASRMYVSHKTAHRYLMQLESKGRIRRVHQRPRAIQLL", "test": "SPR; gp6 2.34-150 nM (Fig. 6D); SPR: 25 mM Tris-HCl pH 7.4, 140 mM NaCl, 5 mM EDTA, 2 mM DTT, 0.1 mg/ml BSA, 0.005% P20, 25 C; EMSA and footprinting buffers as in cited work", "settings": "protein: recombinant; tags: N-terminal His6 + thrombin site; chain copies: 2; label: 3'-biotin-TEG on S1 capture oligo; 36 bp duplex, 5' overhang 15 nt annealed to immobilized S1 (S39)"}, "gp6 [3]": {"biological_target": "T3, gp6", "test": "SPR; SPR: 25 mM Tris-HCl pH 7.4, 140 mM NaCl, 5 mM EDTA, 2 mM DTT, 0.1 mg/ml BSA, 0.005% P20, 25 C; EMSA and footprinting buffers as in cited work", "settings": "protein: recombinant, tags: N-terminal His6 + thrombin site, chain copies: 2, label: 3'-biotin-TEG on S1 capture oligo, 5' overhang 15 nt annealed to immobilized S1 (S39)"}},
  "data": [
    {"molecule": "TGTTGAACAAGGAATAGTAGAAAAGGACTAGCAAAGTTGCTAGTCTTTTTTATTTGTCCAAAATGACACACGTGTGACGTTATGCGGAACACTCGTTCGTATTATAGTATACATATAGCGAACAAACATTCGATAAGGAGTGTGACAAAGTGGATGCTTTAACGGAACTAATCATAGCTAACAATAAAGTGGAAATGCTT (double strand) [P3 fragment with dinBox2 and dinBox3 (EMSA7/EMSA10)]", "values": [
      {"measurement": "binding", "setting": "[1]", "result": "no binding"}
    ]},
    {"molecule": "B23_Swt (gp6 site) (dsDNA) DNA 1: GTTACTACTCGAGCGATTTGTCCAAAATGACACACGTGTGACGTTATGCGG DNA 2: CCGCATAACGTCACACGTGTGTCATTTTGGACAAAT", "values": [
      {"measurement": "binding result", "setting": "gp6 K38A", "result": "no binding"},
      {"measurement": "binding result", "setting": "gp6 [2]", "result": "binds"}
    ]},
    {"molecule": "B23_Smns (triple mutant gp6 site) (dsDNA) DNA 1: GTTACTACTCGAGCGATTTGTCCAAAATTACCCACGTATGACGTTATGCGG DNA 2: CCGCATAACGTCATACGTGGGTAATTTTGGACAAAT", "values": [
      {"measurement": "binding result", "setting": "gp6 [3]; 36 bp duplex", "result": "no binding"}
    ]},
    {"molecule": "B23_Lwt (-35, dinBox2, dinBox3) (dsDNA) DNA 1: GTTACTACTCGAGCGATTTGTCCAAAATGACACACGTGTGACGTTATGCGGAACACTCGTTCGTATTATAGTATACATATAGCGAACAAACATTCGATAAGGAG DNA 2: CTCCTTATCGAATGTTTGTTCGCTATATGTATACTATAATACGAACGAGTGTTCCGCATAACGTCACACGTGTGTCATTTTGGACAAAT", "values": [
      {"measurement": "binding result", "setting": "gp6 [3]; 89 bp duplex", "result": "binds"}
    ]}
  ]
}
